Positions count from the first letter of the chain named.
Experiments:
Assay in all cases: yeast two-hybrid
GIP130a = biological target: T1, GIP130a (human, UniProt Q4L180 1-1135)
T1 construct: Full length; tested as GAL4 domain fusion in yeast two-hybrid
T1 sequence: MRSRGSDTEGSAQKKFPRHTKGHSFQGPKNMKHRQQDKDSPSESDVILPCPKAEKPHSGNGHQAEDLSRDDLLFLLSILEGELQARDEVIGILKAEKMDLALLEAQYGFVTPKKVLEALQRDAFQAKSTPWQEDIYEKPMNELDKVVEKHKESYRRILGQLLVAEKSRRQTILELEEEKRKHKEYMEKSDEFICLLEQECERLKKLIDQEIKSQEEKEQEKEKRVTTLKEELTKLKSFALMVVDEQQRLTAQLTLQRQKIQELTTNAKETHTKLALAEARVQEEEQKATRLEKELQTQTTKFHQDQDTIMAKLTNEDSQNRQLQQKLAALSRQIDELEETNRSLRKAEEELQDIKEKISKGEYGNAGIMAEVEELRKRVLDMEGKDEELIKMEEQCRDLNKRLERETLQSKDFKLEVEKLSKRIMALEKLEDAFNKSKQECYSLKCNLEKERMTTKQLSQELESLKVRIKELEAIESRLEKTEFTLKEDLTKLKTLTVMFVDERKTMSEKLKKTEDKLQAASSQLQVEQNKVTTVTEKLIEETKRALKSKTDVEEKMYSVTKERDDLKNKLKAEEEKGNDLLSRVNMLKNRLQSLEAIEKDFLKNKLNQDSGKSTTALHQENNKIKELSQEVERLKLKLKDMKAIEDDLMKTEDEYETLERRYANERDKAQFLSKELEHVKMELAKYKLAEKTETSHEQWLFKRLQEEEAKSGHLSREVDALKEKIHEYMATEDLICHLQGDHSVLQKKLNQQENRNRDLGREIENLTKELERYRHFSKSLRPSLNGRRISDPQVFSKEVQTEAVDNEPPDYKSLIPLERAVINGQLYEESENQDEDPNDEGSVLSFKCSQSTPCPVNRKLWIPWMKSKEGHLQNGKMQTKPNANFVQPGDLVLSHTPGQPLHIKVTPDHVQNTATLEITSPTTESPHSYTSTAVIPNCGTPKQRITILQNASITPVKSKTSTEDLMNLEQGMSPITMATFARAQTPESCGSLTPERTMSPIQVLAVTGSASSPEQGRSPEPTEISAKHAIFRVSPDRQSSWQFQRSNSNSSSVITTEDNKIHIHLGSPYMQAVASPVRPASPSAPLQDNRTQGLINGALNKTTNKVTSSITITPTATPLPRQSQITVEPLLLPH

GIP130b = biological target: T2, GIP130b (human, UniProt Q4L180 1-1128)
T2 construct: Full length; tested as GAL4 domain fusion in yeast two-hybrid
T2 sequence: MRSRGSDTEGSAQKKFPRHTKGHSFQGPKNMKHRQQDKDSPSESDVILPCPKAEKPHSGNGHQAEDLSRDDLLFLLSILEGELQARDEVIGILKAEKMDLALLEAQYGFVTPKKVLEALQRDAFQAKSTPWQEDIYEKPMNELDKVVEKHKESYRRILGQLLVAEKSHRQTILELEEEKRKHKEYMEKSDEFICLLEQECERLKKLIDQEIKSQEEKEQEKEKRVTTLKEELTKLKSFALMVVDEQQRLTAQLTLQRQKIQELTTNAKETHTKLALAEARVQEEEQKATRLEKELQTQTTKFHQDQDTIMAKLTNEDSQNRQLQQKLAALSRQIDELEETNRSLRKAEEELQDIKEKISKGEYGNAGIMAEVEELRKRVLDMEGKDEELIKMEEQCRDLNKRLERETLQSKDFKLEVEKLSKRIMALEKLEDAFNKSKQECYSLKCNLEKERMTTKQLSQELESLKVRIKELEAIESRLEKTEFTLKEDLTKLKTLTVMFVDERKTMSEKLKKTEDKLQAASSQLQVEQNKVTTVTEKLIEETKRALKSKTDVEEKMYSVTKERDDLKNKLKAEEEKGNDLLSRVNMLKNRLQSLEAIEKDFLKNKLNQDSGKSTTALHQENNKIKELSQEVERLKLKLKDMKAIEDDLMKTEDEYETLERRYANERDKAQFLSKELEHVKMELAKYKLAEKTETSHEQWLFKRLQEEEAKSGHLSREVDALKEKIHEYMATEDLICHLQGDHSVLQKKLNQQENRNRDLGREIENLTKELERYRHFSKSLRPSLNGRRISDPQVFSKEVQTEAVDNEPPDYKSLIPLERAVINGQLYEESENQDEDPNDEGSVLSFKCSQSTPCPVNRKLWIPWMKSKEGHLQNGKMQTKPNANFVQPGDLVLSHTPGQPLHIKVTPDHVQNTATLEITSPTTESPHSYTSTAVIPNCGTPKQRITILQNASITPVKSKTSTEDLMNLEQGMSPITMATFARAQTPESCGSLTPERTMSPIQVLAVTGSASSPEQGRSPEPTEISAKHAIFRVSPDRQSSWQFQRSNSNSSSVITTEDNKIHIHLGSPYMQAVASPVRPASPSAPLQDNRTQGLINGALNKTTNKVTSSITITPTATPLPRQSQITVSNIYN

GIP130c = biological target: T3, GIP130c (human, UniProt Q4L180 1-1128)
T3 construct: Full length; tested as GAL4 domain fusion in yeast two-hybrid
T3 sequence: T2 sequence with H168R

yeast two-hybrid = biological target: the molecule itself

binding result (GIP130a): binds
binding result (GIP130b): binds
binding result (GIP130c): binds
B1: GIP90 (GPBP interacting protein 90 kDa) (other)
chain: MRSRGSDTEGSAQKKFPRHTKGHSFQGPKNMKHRQQDKDSPSESDVILPCPKAEKPHSGNGHQAEDLSRDDLLFLLSILEGELQARDEVIGILKAEKMDLALLEAQYGFVTPKKVLEALQRDAFQAKSTPWQEDIYEKPMNELDKVVEKHKESYRRILGQLLVAEKSRRQTILELEEEKRKHKEYMEKSDEFICLLEQECERLKKLIDQEIKSQEEKEQEKEKRVTTLKEELTKLKSFALMVVDEQQRLTAQLTLQRQKIQELTTNAKETHTKLALAEARVQEEEQKATRLEKELQTQTTKFHQDQDTIMAKLTNEDSQNRQLQQKLAALSRQIDELEETNRSLRKAEEELQDIKEKISKGEYGNAGIMAEVEELRKRVLDMEGKDEELIKMEEQCRDLNKRLERETLQSKDFKLEVEKLSKRIMALEKLEDAFNKSKQECYSLKCNLEKERMTTKQLSQELESLKVRIKELEAIESRLEKTEFTLKEDLTKLKTLTVMFVDERKTMSEKLKKTEDKLQAASSQLQVEQNKVTTVTEKLIEETKRALKSKTDVEEKMYSVTKERDDLKNKLKAEEEKGNDLLSRVNMLKNRLQSLEAIEKDFLKNKLNQDSGKSTTALHQENNKIKELSQEVERLKLKLKDMKAIEDDLMKTEDEYETLERRYANERDKAQFLSKELEHVKMELAKYKLAEKTETSHEQWLFKRLQEEEAKSGHLSREVDALKEKIHEYMATEDLICHLQGDHSVLQKKTKSTRKQEQRFRKRD
notes: Full length; tested as GAL4 domain fusion in yeast two-hybrid/three-hybrid; fusion parts are not written as pieces
binding result (yeast two-hybrid): binds
